The target of experiment [1] is T1, human Protein S (UniProt P07225 42-676).
T1 chain: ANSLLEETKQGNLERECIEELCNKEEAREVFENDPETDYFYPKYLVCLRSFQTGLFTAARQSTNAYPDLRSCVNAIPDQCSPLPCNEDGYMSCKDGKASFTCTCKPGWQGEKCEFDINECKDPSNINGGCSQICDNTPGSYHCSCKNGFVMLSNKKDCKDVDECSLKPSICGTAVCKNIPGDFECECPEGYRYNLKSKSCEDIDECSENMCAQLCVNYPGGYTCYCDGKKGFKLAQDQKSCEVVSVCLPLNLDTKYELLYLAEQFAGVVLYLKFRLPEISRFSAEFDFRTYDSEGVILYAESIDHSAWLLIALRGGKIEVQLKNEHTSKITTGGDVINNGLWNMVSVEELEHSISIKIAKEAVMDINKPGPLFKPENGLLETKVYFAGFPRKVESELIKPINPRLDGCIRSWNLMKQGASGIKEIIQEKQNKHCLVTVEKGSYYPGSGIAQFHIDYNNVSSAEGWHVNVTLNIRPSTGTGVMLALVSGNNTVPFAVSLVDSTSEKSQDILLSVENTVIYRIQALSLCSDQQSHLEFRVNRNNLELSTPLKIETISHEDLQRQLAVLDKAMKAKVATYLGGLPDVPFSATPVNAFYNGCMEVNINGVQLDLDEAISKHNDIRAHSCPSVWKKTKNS
Nature of the experiment: LANCE competition. A digest of the protocol:
(§1)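 In this LANCE homogeneous time-resolved FRET competition assay, europium-labelled Protein S, ULight-labelled streptavidin and a biotinylated tracer peptide were combined with unlabelled test peptide titrated in three-fold steps. The 50 µl reactions held final concentrations of 10 nM Protein S, 100 nM streptavidin and 300 nM tracer, or 2 nM Protein S and 60 nM tracer on a Tecan F500. After 1 hour at room temperature, signals were read at Ex 340 nm and Em 665 nm. IC50 was determined by non-linear regression of the emission signals.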
A general note: In TR-FRET formats the signal depends on donor and acceptor labels being close together.

The target of experiment [2] is T2, human Protein S (human, UniProt P07225 42-676).
T2 sequence: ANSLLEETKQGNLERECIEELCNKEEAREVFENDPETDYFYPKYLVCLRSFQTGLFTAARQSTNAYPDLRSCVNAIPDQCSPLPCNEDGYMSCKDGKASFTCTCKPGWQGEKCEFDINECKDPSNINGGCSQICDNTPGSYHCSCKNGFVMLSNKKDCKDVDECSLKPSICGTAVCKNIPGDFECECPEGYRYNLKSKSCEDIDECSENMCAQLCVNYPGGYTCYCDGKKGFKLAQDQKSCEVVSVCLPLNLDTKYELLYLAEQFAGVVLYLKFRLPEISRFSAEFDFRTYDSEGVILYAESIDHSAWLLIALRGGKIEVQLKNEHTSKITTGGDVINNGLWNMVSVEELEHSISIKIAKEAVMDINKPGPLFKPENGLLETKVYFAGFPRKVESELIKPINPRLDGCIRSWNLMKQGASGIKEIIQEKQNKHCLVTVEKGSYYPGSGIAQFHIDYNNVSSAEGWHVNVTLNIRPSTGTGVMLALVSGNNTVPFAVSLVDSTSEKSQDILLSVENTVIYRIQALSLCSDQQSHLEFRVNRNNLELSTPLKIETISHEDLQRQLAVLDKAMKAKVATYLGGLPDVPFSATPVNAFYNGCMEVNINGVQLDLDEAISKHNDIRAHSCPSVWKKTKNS
Kind of experiment: cell-based or functional assay.

The target of experiment [3] is T2, human Protein S. Nature of the experiment: competition ELISA; Protein S coated; competitor biotinylated tracer JBS0684. On the procedure:
The competition (IC50) ELISA was performed using biotinylated tracer peptide JBS0684 to compete for Protein S-binding with candidate peptides. Peptides that compete with the tracer bind the same region of Protein S as the tracer (and each other). Ninety-six well PolySorp plates (Nunc) were coated with 3 μg/mL Protein S in coating buffer (15 mM Na₂CO₃, 35 mM NaHCO₃, pH 9.6) over night. […] Plates were then washed three times with HNaT. JBS0684 was applied at a concentration corresponding to the EC90 value determined in the binding ELISA. A competitor stock solution of peptide (10 mM) was diluted 1/33.3 in HNaT without HSA, and a serial 1/3 dilution was prepared with HNaT with 3% DMSO. The dilution was further diluted with the biotinylated tracer peptide in a ratio of 1:6 (20 μl competitor dilution and 100 μl tracer peptide). The mixture of competitor and tracer peptide was applied to the Protein S-coated microtiter plate and incubated for 1.5 hours. The plates were washed three times with HNaT. Peptide-Protein S binding was detected by applying HRP-conjugated streptavidin to the microtiter plate, incubating the mixture for one hour, washing the plate three times with HNaT, applying TMB (3,3′5,5′-Tetramethylbenzidin), and detecting the subsequent chromogenic conversion of TMB by HRP. IC50 measurements of peptides are provided herein (see, e.g., Table 3).
A general note: In an ELISA, binding on a coated surface is turned into a signal by an enzyme label.

The target of experiment [4] is T1, human Protein S. Nature of the experiment: LANCE competition. Summed up:
as §1

Experiment [5] addresses T2, human Protein S. Kind of experiment: Biacore (SPR), Protein S immobilized. A digest of the protocol: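 Human full-length Protein S was immobilized at 1000 RU on a […] chip in a Biacore 3000 or Biacore T200 instrument. Peptides at various concentrations in HBS-buffer containing 3 mM CaCl₂ and 1% DMSO were injected over the surface, and the chip was regenerated with 4 M MgCl₂ in HBS-buffer. Binding kinetics were determined by surface plasmon resonance: kon and koff were obtained by fitting sensorgrams to a Langmuir binding model, and Kd was calculated from these rate constants.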
A general note: In SPR one partner is held on a chip, and binding of the other changes the refractive index at the surface.

Experiment [6] deals with T2, human Protein S. Nature of the experiment: cell-based or functional assay. The source holds these as a separate data set.
The target in experiment [7] is T2, human Protein S. Nature of the experiment: LANCE TR-FRET competition; Eu-labeled Protein S; competitor tracer JBS0684. On the procedure:
Peptides also were characterized in a competition, homogenous europium-based TR-FRET assay (LANCE IC50 assay) using JBS0684 as a tracer (i.e., competitor for Protein S binding). The following reagents were mixed together in a Perkin-Elmer ProxiPlate MTP well (indicated concentration is the final concentration): Eu-labeled Protein S (10 nM), Ulight™-labeled Streptavidin (100 nM), tracer (JBS0684 (300 nM)), and peptide (titrated in three-fold dilution steps). The final volume was 50 μl/well. The reaction mix was incubated for 1 hour at room temperature, then the fluorescence emission at 665 nm was recorded on a multi-mode reader (SpectraMax® M5, Molecular Devices) using the following instrument settings: Ex 340 nm, Em 665 nm, delay 50 μsec, integration 100 μsec, reads 100. Binding of tracer peptides to soluble europium-labeled Protein S was detected by Streptavidin labeled with an acceptor fluorophor (ULight™). Inhibition of tracer-binding to Protein S by a non-biotinylated peptide results in a decrease of TR-FRET between the Eu-labeled Protein S and ULight™-labeled Streptavidin. IC50 values were obtained from peptide titration curves at constant tracer concentration using non-linear regression of the fluorescence emission signals at 665 nm.
Several peptides having multiple substitutions in the JBS2572 amino acid sequence were synthesized and evaluated using LANCE IC50 and CAT assays described above. For the assays, pooled normal plasma was supplemented with 3 nM APC and triggered with 6 pM TF, and 15 μM phospholipids (DOPC/POPS 80/20). Stock APC was diluted with TF-PL-MIX to 24 nM (plasma concentration: 3 nM).

Where two headings read alike, the source gives them in different places.

For the molecule Ac-TAHVSAGWYDYNFDHYREFT-NH2 [JBS2516], the half-maximal inhibitory concentration (IC50) (usually the concentration at which inhibition is half-maximal) with human Protein S [1] stood at 9.9 nM; with human Protein S [3], 3.3 nM. In the experiment with human Protein S [2], the “CAT EC50” value came to 21 nM.
As for Ac-GGHVSAGWYDYNFDHYREFT-NH2 [JBS2552], the half-inhibitory concentration (IC50) in the experiment with human Protein S [1] was found to be 16.6 nM; in the experiment with human Protein S [3], 5.5 nM. Further, the “CAT EC50” value with human Protein S [2] was found to be 24 nM.
Regarding Ac-TGHVSAGWYDYNFDAYREFT-NH2 [JBS2528], the IC50 in the experiment with human Protein S [1] turned out to be 18.8 nM; with human Protein S [3], 5.2 nM. The “CAT EC50” value in the experiment with human Protein S [2] was determined as 23 nM.
Ac-HWYVSAGWYDYNEDKYYEFE-NH2 [JBS3306] came in with an IC50 in the experiment with human Protein S [4] of 0.8 nM. Moreover, in the experiment with human Protein S [5], binding was put at a Kd of 0.4 nM; the koff (usually a measure of how fast the partners let go of each other) was found to be 0.000402 s⁻¹; the kon (in general, the rate constant with which the complex forms) was determined as 1e+06 M⁻¹ s⁻¹.
For the molecule Ac-TGKVSAGWYDYNFDHYREFT-NH2 [JBS2592], the figures for the IC50 in the experiment with human Protein S [1] and in the experiment with human Protein S [3] were 20 nM and 5.6 nM, respectively. The “CAT EC50” value with human Protein S [2] worked out at 68 nM.
Take Ac-TGHVSAGWYDYNFDHYFEFT-NH2 [JBS2625]: the 50% inhibitory concentration (IC50) was 6.6 nM in the experiment with human Protein S [1] and 1.6 nM with human Protein S [3]. Moreover, the “CAT EC50” value with human Protein S [2] is 29 nM.
Ac-AIYVTAGWYDYNNDTYYEFT-NH2 [JBS3283] displayed an IC50 with human Protein S [4] of 0.9 nM. In addition, in the experiment with human Protein S [5], binding was put at a Kd of 0.4 nM, the koff was 0.000322 s⁻¹ and the kon came to 735000 M⁻¹ s⁻¹.
Regarding Ac-TGHVSAGWYDYNKDHYREFT-NH2 [JBS2602], the IC50 amounted to 10.9 nM with human Protein S [1] and 3.4 nM with human Protein S [3]. Besides, the “CAT EC50” value in the experiment with human Protein S [2] came out at 30 nM.
On to Ac-TGHVSAGWYDYNFDSYREFT-NH2 [JBS2661], for which the IC50 was 7.8 nM in the experiment with human Protein S [1] and 2.8 nM with human Protein S [3]. For the same molecule, the “CAT EC50” value with human Protein S [2] was determined as 16 nM.
For Ac-TGHVSAGWYDYNADHYREFT-NH2 [JBS2526], the “CAT EC50” value in the experiment with human Protein S [2] was 19 nM. This molecule also returned an IC50 in the experiment with human Protein S [3] of 3.6 nM.
Turning to Ac-TGLVSAGWYDYNFDTYTEFT-NH2 [JBS3188], the “CAT EC50” value in the experiment with human Protein S [6] stood at 155 nM. For the same molecule, the IC50 in the experiment with human Protein S [7] stood at 2.9 nM.
Regarding Ac-TGHVSAGWYDYNFDKYREFT-NH2 [JBS2604], the “CAT EC50” value in the experiment with human Protein S [2] was found to be 19 nM. Besides, the IC50 with human Protein S [3] worked out at 4.1 nM.
On to Ac-TGHVSAGWYDYNFDLYREFT-NH2 [JBS2584], for which the “CAT EC50” value with human Protein S [2] was 9 nM. This molecule returned an IC50 in the experiment with human Protein S [3] of 2.7 nM.
With Ac-YGLVSAGWYDYNFDTYREFT-NH2 [JBS3190], in the experiment with human Protein S [6], the “CAT EC50” value came to 130 nM. The same molecule gave an IC50 with human Protein S [7] of 1.6 nM.
Ac-TPHVSAGWYDYNFDHYREFT-NH2 [JBS2629]: the “CAT EC50” value in the experiment with human Protein S [2] stood at 25 nM. The IC50 with human Protein S [3] is 3.1 nM.
As to Ac-TKHVSAGWYDYNFDHYREFT-NH2 [JBS2591], the IC50 with human Protein S [3] was determined as 4.2 nM.
Ac-TGLVSAGWYDYNFDTYMEFT-NH2 [JBS3186]: the “CAT EC50” value with human Protein S [6] came to 176 nM. The molecule further returned a half-inhibitory concentration (IC50) with human Protein S [7] of 2.6 nM.
On the same counts, the results for Ac-TGLVSAGWYDYNFDVYTEFT-NH2 [JBS3189] are 281 nM and 5 nM.
Consider Ac-TGHVSAGWYDYNLDHYREFT-NH2 [JBS2582], for which the IC50 with human Protein S [1] came out at 7.4 nM; with human Protein S [3], 2.3 nM. For the same molecule, in the experiment with human Protein S [2], the “CAT EC50” value was 15 nM.

B1: JBS3321 (peptide)
peptide: Ac-EYYVSAGWYDYNTDTYYEFEC-NH2
modifications: not fully specified (residue 21)
notes: Tetramer of JBS3319 monomers with a four arm 10 kD PEG moiety
As to B1, the IC50 with human Protein S [4] was determined as 0.7 nM. In addition, in the experiment with human Protein S [5], the Kd (commonly the free concentration of one partner at which half of the binding sites on the other are occupied at equilibrium, for simple one-to-one binding) worked out at 0.02 nM; the koff turned out to be 3.88e-05 s⁻¹; the kon stood at 1.58e+06 M⁻¹ s⁻¹.
As to Ac-TGHVSAGWYDYNFDHYLEFT-NH2 [JBS2586], the IC50 was 11 nM in the experiment with human Protein S [1] and 2.6 nM in the experiment with human Protein S [3]. The “CAT EC50” value with human Protein S [2] was found to be 19 nM.
On to Ac-TGHVSAGWYDYNFDHYREFT-NH2 [JBS2512], for which the IC50 amounted to 21.5 nM with human Protein S [1] and 3.9 nM with human Protein S [3]. Moreover, in the experiment with human Protein S [2], the “CAT EC50” value was determined as 24 nM.
As for Ac-EYIVTAGWYDYNKDIYYEFK-NH2 [JBS3263], the IC50 in the experiment with human Protein S [4] was determined as 1.2 nM. In the experiment with human Protein S [5], this molecule had a Kd of 0.4 nM, a koff of 0.000264 s⁻¹ and a kon of 629000 M⁻¹ s⁻¹.
Ac-TGHVSAGWYDYNFDDYREFT-NH2 [JBS2546]: the figures for the IC50 with human Protein S [1] and with human Protein S [3] were 31 nM and 6.8 nM, respectively. Further, the “CAT EC50” value in the experiment with human Protein S [2] stood at 30 nM.

(Values after patent US20150246947A1 (BAXALTA, published 2015).)
